From the supplement of paper PMC11246515
± gives the standard deviation of the averaged measurements.

Experiment: total protein half-life in vivo (active degradation + dilution); higher = more stable protein
[1] = E. coli NCM3722 delta-clpP delta-lon delta-hslV, growth: N-lim chemostat, doubling time 6 h
[2] = E. coli NCM3722 delta-clpP, growth: N-lim chemostat, doubling time 6 h
[3] = E. coli NCM3722 delta-hslV, growth: N-lim chemostat, doubling time 6 h
[4] = E. coli NCM3722 delta-lon, growth: N-lim chemostat, doubling time 6 h
[5] = E. coli NCM3722 delta-smpB, growth: N-lim chemostat, doubling time 6 h
[6] = wild type E. coli NCM3722, growth: C-lim chemostat, doubling time 3 h
[7] = wild type E. coli NCM3722, growth: C-lim chemostat, doubling time 6 h
[8] = wild type E. coli NCM3722, growth: C-lim chemostat, doubling time 12 h
[9] = wild type E. coli NCM3722, growth: N-lim chemostat, doubling time 6 h
[10] = wild type E. coli NCM3722, growth: N-lim chemostat, doubling time 12 h
[11] = wild type E. coli NCM3722, growth: P-lim chemostat, doubling time 6 h
[12] = wild type E. coli NCM3722, growth: P-lim chemostat, doubling time 12 h

Row | Sequence | total protein half-life in vivo [1] | total protein half-life in vivo [2] | total protein half-life in vivo [3] | total protein half-life in vivo [4] | total protein half-life in vivo [5] | total protein half-life in vivo [6] | total protein half-life in vivo [7] | total protein half-life in vivo [8] | total protein half-life in vivo [9] | total protein half-life in vivo [10] | total protein half-life in vivo [11] | total protein half-life in vivo [12]
1 | MQLKRVAEAKLPTPWGDFLMVGFEELATGHDHVALVYGDISGHTPVLARVHSECLTGDALFSLRCDCGFQLEAALTQIAEEGRGILLYHRQEGRNIGLLNKIRAYALQDQGYDTVEANHQLGFAADERDFTLCADMFKLLGVNEVRLLTNNPKKVEILTEAGINIVERVPLIVGRNPNNEHYLDTKAEKMGHLLNK [P0A7I7] | 4.5 ± 0.35 h | 4.52 ± 0.67 h | 4.48 ± 0.35 h | 4.54 ± 0.19 h | 4.54 ± 0.23 h | 2.92 ± 0.095 h | 5.1 ± 0.3 h | 8.93 ± 0.54 h | 4.27 ± 0.17 h | 6.85 ± 0.2 h | 6.08 ± 0.73 h | 10.3 ± 0.8 h
2 | MEQSVANLVDMRDVSFTRGNRCIFDNISLTVPRGKITAIMGPSGIGKTTLLRLIGGQIAPDHGEILFDGENIPAMSRSRLYTVRKRMSMLFQSGALFTDMNVFDNVAYPLREHTQLPAPLLHSTVMMKLEAVGLRGAAKLMPSELSGGMARRAALARAIALEPDLIMFDEPFVGQDPITMGVLVKLISELNSALGVTCVVVSHDVPEVLSIADHAWILADKKIVAHGSAQALQANPDPRVRQFLDGIADGPVPFRYPAGDYHADLLPGS | 6.3 ± 0.54 h | 6.19 ± 0.062 h |  |  | 5.79 ± 0.68 h | 3.08 ± 0.07 h | 7.05 ± 1.1 h | 12.3 ± 2 h | 6.18 ± 0.23 h | > 16 h | 7.04 ± 0.68 h | 14.1 ± 0.78 h
3 | MLLAGSSLLTLLDDIATLLDDISVMGKLAAKKTAGVLGDDLSLNAQQVSGVRANRELPVVWGVAKGSLINKVILVPLALIISAFIPWAITPLLMIGGAFLCFEGVEKVLHMLEARKHKEDPAQSQQRLEKLAAQDPLKFEKDKIKGAIRTDFILSAEIVAITLGIVAEAPLLNQVLVLSGIALVVTVGVYGLVGVIVKIDDLGYWLAEKSSALMQALGKGLLIIAPWLMKALSIVGTLAMFLVGGGIVVHGIAPLHHAIEHFAGQQSAVVAMILPTVLNLILGFIIGGIVVLGVKAVEKMRGQAH | 5.24 ± 0.46 h |  | 5.53 ± 0.22 h | 5.52 ± 0.47 h | 5.54 ± 0.83 h | 3.16 ± 0.37 h | 5.92 ± 1.3 h | 10.3 ± 1.3 h | 5.79 ± 0.4 h | 12.22 ± 0.064 h | 5.22 ± 0.29 h | 10.4 ± 0.92 h
4 | MMVTVVSNYCQLSQTQLSQTFAEKFTVTEELLQSLKKTALSGDEESIELLHNIALGYDKFGKEAEDILYHIVRTPTNETLSIIRLIKNACLKLYNLAHIATNSPLKSHDSDDLLFKKLFSPSKLMTIIGDEIPLISEKQSLSKVLLNDENNELSDGTNFWDKNRQLTTDEIACYLQKIAANAKNTQVNYPTGLYVPYSTRTHLEDALNENIKSDPSWPNEVQLFPINTGGHWILVSLQKIVNKKNNKLQIKCVIFNSLRALGYDKENSLKRVINSFNSELMGEMSNNNIKVHLNEPEIIFLHADLQQYLSQSCGAFVCMAAQEVIEQRESNSDSAPYTLLKNHADRFKKYSAEEQYEIDFQHRLANRNCYLDKYGDANINHYYRNLEIKHSQPKNRASGKRVS | 6.83 h |  |  |  |  |  |  |  |  |  |  | 
5 | MEGWQRAFVLHSRPWSETSLMLDVFTEESGRVRLVAKGARSKRSTLKGALQPFTPLLLRFGGRGEVKTLRSAEAVSLALPLSGITLYSGLYINELLSRVLEYETRFSELFFDYLHCIQSLAGVTGTPEPALRRFELALLGHLGYGVNFTHCAGSGEPVDDTMTYRYREEKGFIASVVIDNKTFTGRQLKALNAREFPDADTLRAAKRFTRMALKPYLGGKPLKSRELFRQFMPKRTVKTHYE [P0A7H3] |  | 2.812 ± 0.027 h |  | > 8 h |  | 1.98 h |  | 2.57 h |  | 2.87 h |  | 4.34 h
6 | MPRFFTRHAATLFFPMALILYDFAAYLSTDLIQPGIINVVRDFNADVSLAPAAVSLYLAGGMALQWLLGPLSDRIGRRPVLITGALIFTLACAATMFTTSMTQFLIARAIQGTSICFIATVGYVTVQEAFGQTKGIKLMAIITSIVLIAPIIGPLSGAALMHFMHWKVLFAIIAVMGFISFVGLLLAMPETVKRGAVPFSAKSVLRDFRNVFCNRLFLFGAATISLSYIPMMSWVAVSPVILIDAGSLTTSQFAWTQVPVFGAVIVANAIVARFVKDPTEPRFIWRAVPIQLVGLSLLIVGNLLSPHVWLWSVLGTSLYAFGIGLIFPTLFRFTLFSNKLPKGTVSASLNMVILMVMSVSVEIGRWLWFNGGRLPFHLLAVVAGVIVVFTLAGLLNRVRQHQAAELVEEQ |  | 7.03 h |  |  |  |  |  |  |  |  |  | 
7 | MQKNAAHTYAISSLLVLSLTGCAWIPSTPLVQGATSAQPVPGPTPVANGSIFQSAQPINYGYQPLFEDRRPRNIGDTLTIVLQENVSASKSSSANASRDGKTNFGFDTVPRYLQGLFGNARADVEASGGNTFNGKGGANASNTFSGTLTVTVDQVLVNGNLHVVGEKQIAINQGTEFIRFSGVVNPRTISGSNTVPSTQVADARIEYVGNGYINEAQNMGWLQRFFLNLSPM [P0A6S0] | 4.87 ± 0.27 h | 5.09 ± 0.14 h |  |  |  | 2.82 ± 0.29 h | 4.64 ± 0.58 h | 7.92 ± 0.56 h | 4.97 h | 9.12 h | 5.6 h | 11.5 ± 0.65 h
8 | MAGLKLQAVTKSWDGKTQVIKPLTLDVADGEFIVMVGPSGCGKSTLLRMVAGLERVTEGDIWINDQRVTEMEPKDRGIAMVFQNYALYPHMSVEENMAWGLKIRGMGKQQIAERVKEAARILELDGLLKRRPRELSGGQRQRVAMGRAIVRDPAVFLFDEPLSNLDAKLRVQMRLELQQLHRRLKTTSLYVTHDQVEAMTLAQRVMVMNGGVAEQIGTPVEVYEKPASLFVASFIGSPAMNLLTGRVNNEGTHFELDGGIELPLNGGYRQYAGRKMTLGIRPEHIALSSQAEGGVPMVMDTLEILGADNLAHGRWGEQKLVVRLAHQERPTAGSTLWLHLAENQLHLFDGETGQRV | 6.33 ± 0.31 h | 6 ± 0.91 h | 5.83 ± 0.11 h | 4.99 ± 0.61 h | 5.45 ± 0.75 h | 3.13 ± 0.15 h | 5.54 ± 0.4 h | 12 ± 0.92 h | 5.14 ± 0.41 h |  | 6.25 ± 0.35 h | 13.2 ± 0.23 h
9 | MIKPTFLRRVAIAALLSGSCFSAAAAPPAPPVSYGVEEDVFHPVRAKQGMVASVDATATQVGVDILKEGGNAVDAAVAVGYALAVTHPQAGNLGGGGFMLIRSKNGNTTAIDFREMAPAKATRDMFLDDQGNPDSKKSLTSHLASGTPGTVAGFSLALDKYGTMPLNKVVQPAFKLARDGFIVNDALADDLKTYGSEVLPNHENSKAIFWKEGEPLKKGDTLVQANLAKSLEMIAENGPDEFYKGTIAEQIAQEMQKNGGLITKEDLAAYKAVERTPISGDYRGYQVYSMPPPSSGGIHIVQILNILENFDMKKYGFGSADAMQIMAEAEKYAYADRSEYLGDPDFVKVPWQALTNKAYAKSIADQIDINKAKPSSEIRPGKLAPYESNQTTHYSVVDKDGNAVAVTYTLNTTFGTGIVAGESGILLNNQMDDFSAKPGVPNVYGLVGGDANAVGPNKRPLSSMSPTIVVKDGKTWLVTGSPGGSRIITTVLQMVVNSIDYGLNVAEATNAPRFHHQWLPDELRVEKGFSPDTLKLLEAKGQKVALKEAMGSTQSIMVGPDGELYGASDPRSVDDLTAGY | 6.01 ± 0.77 h |  | 5.99 ± 0.16 h |  | 6.24 ± 0.43 h | 3.1 ± 0.34 h | 5.9124 ± 0.0049 h | 12.2 ± 2.3 h | 6.219 ± 0.013 h | 12.42 ± 0.05 h | 5.73 ± 0.52 h | 13.2 ± 1.1 h
